Test: soluble on expression in E. coli; label from the status in PepcDB or PDB records

Sequence | soluble on expression in E. coli
ENLYFQGMKPIHVGLLGLGTVGGGTLTVLRRNAEEITRRAGREIRVVRAAVRNLDKAEALAGGLPLTTNPFDVVDDPEIDIVVELIGGLEPARELVMQAIANGKHVVTANKHLVAKYGNEIFAAAQAKGVMVTFEAAVAGGIPIIKALREGLTANRIEWLAGIINGTSNFILSEMRDKGAAFDDVLKEAQRLGYAEADPTFDIEGIDAAHKLTILSAIAFGIPMQFERAYTEGISQLTREDVRYAEELGYRIKLLGIARRAENGIELRVHPTLIPERRLIANVDGAMNAVLVKGDAVGPTLYYGAGAGSEPTASAVVADLVDVTRLHTADPHHRVPHLAFQPDQLADTPILPMEAVRTAYYLRLRAFDRPGVLADITRILADSSISIDAMVQKEPAEGEEQVDIILLTHVTLEKNVNAAIAKIEALDAVAGKVMRIRLEDLGAK | soluble
MTVEERSNTAKVDILGVDFDNTTMLQMVENIKTFFANQSTNNLFIVTANPEIVNYATTHQAYLELINQASYIVADGTGVVKASHRLKQPLAHRIPGIELMDECLKIAHVNHQKVFLLGATNEVVEAAQYALQQRYPNISFAHHHGYIDLEDETVVKRIKLFKPDYIFVGMGFPKQEEWIMTHENQFESTVMMGVGGSLEVFAGAKKRAPYIFRKLNIEWIYRALIDWKRIGRLKSIPIFMYKIAKAKRKIKKAK | not soluble
RERLLSEAKATLQNYVAIAMTAIKPLYDAAAPGDEAARANAIKLLSAVSYGKDGYLFGYDSQVVRIFRSTSPDGLGKSFVDARDANGVYINR | not soluble
MLSKISESLANLSGAERKVAECALAEPKWFVHAAVAEIAERASVSQPTVIRFCRSLGYKGLPEFKLALSASIGHEGMPYVHEELNADDDMASVVEKVLGNAAASL | not soluble
MTEVNAFADTPWRAGVIQDFARSELFDRTFEEGMQLVEETAAYLDGAGRHDSKVLSRNAALGYATESMRLTTRLMQVASWLLVQRAVREGEMPPEAACAEAYRLAEEAPADGPAVEELPFGLMNLLQRSERLYERVRHLDRRMYVESPNEEAPRPVQNQLDRLTAAFGG | soluble
MGSDKIHHHHHHMLDHLCVNMLSSCPRCASSSGNRASRRYPMRINADFTRRAAVHFDQTDWVPSPAPGVERKMLDRIGAEVARATTIVRFAPGSAFSAHTHDGGEEYLVLDGVFQDELGDFPVGSYVRNPPTSSHTPATEPGATILVKLHQFDPADRTEVRRSINGKSDETLFSDSHEEVRLESWAAGAQVTRDLPGGIEVFVLEGGFQEGGETFSRWDWLRLPPGARLDLTAGAEGARVWVKSGHLAAMV | not soluble
METQENMIKTALQAAQKPFFEFAPNNTPLVFTPDQDGGWRYKSHPELMQNPYRKCGKFLMHDTASLIKFVQKHKQDGTQIYIDADFKSGRIDVTAVINGHTQQAPGWLDFYAVYTPQHTTSASNWLNNNAHRMNQMEFSHFLTNNARNIVSKNPGNENSVYPTAAEVLDFALNLEYTEKTTFKQGYREQDGRINFTFQSEDSGQTEKNLKMFERFGIEFTPHQGGASYFVEALLKFRIDKNSGALVLWYELQQIDAVIEQAAKDISEAVQKAFPEIDIYFGVIA | soluble
GILRTQHTIRDSELNIKNSKMSDSVNARESNVYMAKLAEQAERYDEMAKYMKDVVEARQESEELTVEERNLLSVAYKNAVGSRRSSWRIISSVEQKEHSRNAEDASKMCGKYRSKVEAELTDICNDILTMLDKHLIPTATSPDSKVFYFKMKGDYHRYISEFSTGDSKQSSAEDALKAYKDATVVAKDLEPTHPIRLGLALNFSVFHYEILNEPRAAIDMAKEAFEMAIEQLDKLSEDCYKDSTLIMQLLRDNLTLWTAD | soluble
MDGNDLIRLEMKRLGPMAVEKGDLLLLSGDNNADASMWDPNSNGPKSYQSQVAGLRLAAGGVFHVLTLKSAGEATLSIHFVFPSRTDPGRQVQMWVRRVGRSFQGAGSGYVLMNMRHVVNVQGKTIHTQTGNTVCLDDITDDCYLDREGRFVFVKSPVGSPPSMIAVGYTNSDGTQDLAELILTESACPEMLHVFSTLEFPD | soluble
MGSDKIHHHHHHMSQSAITVDQVTVTYRNGHTALRDATFQVPGGSIAALVGVNGSGKSTLFKALMGFVHLAQGDITILQQSVNKALKKNLIAYVPQSEEVDWSFPVLVEDVVMMGRYGHMGWLRRPTAHDHACVDAALARVDMQEYRHRQIGELSGGQKKRVFLARAIAQDGQVILLDEPFTGVDVKTEARIIDLLRELRDEGRTMLVSTHNLGSVTEFCDYTVMIKGTVLASGPTETTFTAANLEQAFSGVLRHIALSGGEEHIITDDERPFISRRVASGGKSS | not soluble
MGSDKIHHHHHHMPQEPESGADLPSDRTAVFPTPEGPPLPKQVTLQAAKWLVMLQAPNTTQATRAKWQQWRDVHPDHERAWQHIEASATQMRAMHSPLAHGTLIRDDTEKRHARRRAIKLLGVIAFTGTSTWLLRDNPVWREWHADHRTATSERRTIVLADGTRIMLNTASIIDVHFDNAIRLVTLIRGEILVTTAPDSASGTGQPFIVETDQGRLRALGTRFAVRQRENDSHVSLFEGMVEIRPADASDQARVLQAGEQISFTRNAIETPQTIDTHAASWVTGMLVVQEMPLTDFIDELARYRPGYLSCDPELSHLKVSGIYPIEDTERVLDMLLHVHPIEIYSLTRYWVAIRARGDR | not soluble
TTSMIQISDAVGYLIRPLKIFKLPVDDIVLTLSIALRFIPTMLQEISTISDAQKARGSSLNSRSIAKKIKAIVPILMPLFIASVRRAEDLATAMIMRGYSDGKNRTKFRIMK | not soluble
MRELGLEIPVEEVYNANSISLKDAVVHFGGGCTGEVISSEGLVLTNHHCGYGAIQQHSNVEHDYLTEGFWAMNRDAELPTPGLTVTFIDRILDVTSYVNDQLKKDEDPNGTNYLSPSYLSKVAERFAKDENIEVTPATKLELKAFYGGNKYYMFVKTVYSDIRMVGAPPSSIGKFGADTDNWMWPRHTGDFSLFRIYADKNGKPAAYSRDNVPLQVKKHLKISIAGVQEGDFTFVMGFPGRNWRYMISDEVEERMQTTNFMRQHVRGARQKVLMEQMLKDPAVRIHYASKYASSANYWKNAIGMNEGLVRLKVLDTKRKQQEELLARGREKGDDSYQKAFDEIRSIVAHRRDALYHQQALNEALVTALDFMRLPSTTEMVTALKSKNKEQIKTATENLKQAGEKYFASVPFPEVERMVAKTMLQTYASYIPEEQRINIFEIINSRFKGNIDSFVDACFEYSIFGNPKNFEKFIKKPSLYKIGHDWMVLFKYSITDGILKTAIAMKEANQNYDAAHKVWVKGMMDMRQEKGMPIYPDANSTLRLTYGQVLSYEPADGVVYDAHTTLKGVMEKEDPGNWEFVVPQKLKELYKARDYGRYGKDGEMPVCFIVNTDNTGGNSGSPVFNSKGQLVGTAFDRNYEGLTGDIAFRPSSQRAACVDIRYTLFIIDKYAGASHIIDELSIE | not soluble
MSLAYFGIYDGHGGAEASLYAKEHLMNTIVSQKLFWSENDDDVLKSIREGYIQTHYSMWREQEKWPKTSSGLPSTAGTTASIAFIRRGKIYIGHVGDSGIVLGYQNDKESANDGRWVATPLTEDHKPESYAEKMRIMSCGGKVVTKSGVPRVVWNRPRIGHKGPVRRSTPIDEIPFLAVARSLGDLWSYNSAMDEFVVSPVPDVSVIEIDPKKYRCLIFGSDGLWNVMSPKNAVDIVRNAEMENVRIALEGGNEWKNPSKLLVNEALDRWSRSNMKADNTSVVIIMLDPEGHHHHHH | not soluble
MVNLTELDRMLTETRGLLSQVRSGKGGASQEAVEGQGSAADGRIRVVAGAGGEITSIELDPRVMRMSSQELAEHLVEAVNQALRELRAQVTTAETAIAPEVLAQRLAEVQDQGLRQMTMFVEGLRDAMTQLGQRADRSG | not soluble
MNNLMVIDGIEVRRDAYGRYSLNDLHRAAGSLDKHKPAFWLRNEQTERLISELQICNSVNIEPVNVIRGGNNQGTYVCKELVYAYAMWISPSFHLKVIRTFDMV | not soluble
MRRHAIILAAGKGTRMKSKKYKVLHEVAGKPMVEHVLESVKGSGVDQVVTIVGHGAESVKGHLGERSLYSFQEEQLGTAHAVQMAKSHLEDKEGTTIVVCGDTPLITKETLETLIAHHEDANAQATVLSASIQQPYGYGRIVRNASGRLERIVEEKDATQAEKDINEISSGIFAFNNKTLFEKLTQVKNDNAQGEYYLPDVLSLILNDGGIVEVYRTNDVEEIMGVNDRVMLSQAEKAMQRRTNHYHMLNGVTIIDPDSTYIGPDVTIGSDTVIEPGVRINGRTEIGEDVVIGQYSEINNSTIENGACIQQSVVNDASVGANTKVGPFAQLRPGAQLGADVKVGNFVEIKKADLKDGAKVSHLSYIGDAVIGERTNIGCGTITVNYDGENKFKTIVGKDSFVGCNVNLVAPVTIGDDVLVAAGSTITDDVPNDSLAVARARQTTKEGYRK | not soluble
MTNHEQVLTDYLAAFIEELVQAGVKEAIISPGSRSTPLALMMAEHPTLKIYVDVDERSAGFFALGLAKASKRPVVLLCTSGTAAANYFPAVVEANLSQIPLIVLTADRPHELRNVGAPQAMDQLHLYGSHVKDFTDMALPENSDEMLRYAKWHSSRAVDIAMKTPRGPVHLNFPLREPLVPILEPSPFTATGKKHHHVH | not soluble
MSLFPDKYDSYLYINQDKIREDLKRALKDALRICLFHITHKSPNIRTEKATRICYYRECGYTDEQIIDKILEEEYVGFVDNIESAIKSREARFRNPQNSAKIACFTENVQSKYMWDRYADGYKGFALEYDLRNCVFKYNKLGMNVNLFPVIYTDLRPDVTLDEGNIHTYEYFKQIGDKNWLNYLNSIISVNQLYWYKAYLYKDQKEYEHEHEWRMLYYNFENEEDYASIPDTGCLKAIYYGPDIAKKDKEKLHRIAVKKGLKEYDVNLDAESRKYDLKVTMFQEGHHHHHH | not soluble
MGSDKIHHHHHHMAKEEALAEAQLDSNRKKIQYRNNNISTQFVTPKYISLLIEKYWHEKNKFRRLLIVIECSKYKNESTIFFFRQVMSGEKDWFIRNYCLRILQRFDEVVYLPPKGKGAQEKYNTLVKHFGCDYKEDIGRTPEDIVKELYENDYIEHAKYFDAFISHAVSNADMVDEFVFKLNSLGLVAFVDWKSDRQDLNRSKLSHYTPTILELRMRQSKNLILIRTKESDLSSWVTWEINYFSKLGKKIAVLNLDNEHGKPHELIDTYPTVRIIDGNILVFNKSKQHKLVDWINES | not soluble
MGSDKIHHHHHHMNFNELKTFVALVETKHFTKTADRLYISQPTVSLHLKHLEEHFGQSLIHRHTFNKTIEISEAGWIVYRHAKEILHQAIRLEQEIDELEGITRGTLRIAATHTIYEAMLEEMIHDFLLVYPDVSVDARVMNQEQVEQALLHYEIDLGMVEGLHRSHQIEAIPFATDRLRIIGHHHLVPEQATWIYREEGSAARLALETWLQTQAIVPKRIITVYSNRLIKQLIKNGTGISILSERLAGSLLESERFQTYDDSQIDPRMFQFITLKGETTRLSQKWINQHGGSD | not soluble
MGSDKIHHHHHHMLIRLGYEIAIECAEATPVISLLEIHKDRQADIKRQTRVLTSPSVPTKLYHDLHGNGCRRFTAPAGTFRILYDAVIEDSGETDEVNTLAREVPVAELPDEVLFYLLGSRYCETDHLSSLAWQLFGHLPSGWARVQAIVDYVHNRLSFGYGYARSTRTAAQAHEERVGVCRDFAHLAITLCRCMNIPARYVNGYLGDIGVPIDPAPMDFSAWMEVFLDGKWYTFDPRHNQPRTGRIVIARGRDATDVPLLHSFGPHRLCLFKVWTYEQEGRSFNPPHRGIDRTVSAQMLA | not soluble

Reference: the DeepSol protein solubility set
